Measured values: patent publication US20250034271A1

Biological target: Histidine-tagged human CD40 protein (hCD40-His) (human) (UniProt P25942)
Assay: SPR, Biacore T200; antibody on Protein A chip, hCD40-His injected; 1:1 fit

Sequence of Histidine-tagged human CD40 protein (hCD40-His) (human) (P25942 21-193 limits assumed): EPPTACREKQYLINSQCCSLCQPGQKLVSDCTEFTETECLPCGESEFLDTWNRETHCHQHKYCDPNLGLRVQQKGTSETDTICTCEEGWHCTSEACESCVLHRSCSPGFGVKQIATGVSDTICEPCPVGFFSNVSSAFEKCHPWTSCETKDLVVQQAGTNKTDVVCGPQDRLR

B1: Dacetuzumab (antibody, part only; not given: constant regions, V domains shown, not shown: another chain or arm of the molecule)
VH: EVQLVESGGGLVQPGGSLRLSCAASGYSFTGYYIHWVRQAPGKGLEWVARVIPNAGGTSYNQKFKGRFTLSVDNSKNTAYLQMNSLRAEDTAVYYCAREGIYWWGQGTLVTVSS
VL: DIQMTQSPSSLSASVGDRVTITCRSSQSLVHSNGNTFLHWYQQKPGKAPKLLIYTVSNRFSGVPSRFSGSGSGTDFTLTISSLQPEDFATYFCSQTTHVPWTFGQGTKVEIK
With B1 the Kd was 20 nM, the koff was 0.00833 s⁻¹ and the kon was 417000 M⁻¹ s⁻¹.
